Primed or numbered codes have the meaning given here. The star is where a group is joined. dPEG8″ = dPEG8: discrete polyethylene glycol-8 linker (between N-terminal biotin and the peptide); dPEG8 = discrete polyethylene glycol-8 linker (long chain); Biotin = O=C1N[C@H]2[C@H](CS[C@H]2CCCCC(=O)*)N1

We go through one molecule from patent US20230348614A1 (VISTERRA, published 2023).

Experiment [1] has as its target T1, Recombinant soluble human CD138 extracellular domain (analyte in SPR) (human, UniProt P18827 23-254).
T1 construct: extracellular domain; also called recombinant CD138 (the antigen)
T1 sequence (looked up): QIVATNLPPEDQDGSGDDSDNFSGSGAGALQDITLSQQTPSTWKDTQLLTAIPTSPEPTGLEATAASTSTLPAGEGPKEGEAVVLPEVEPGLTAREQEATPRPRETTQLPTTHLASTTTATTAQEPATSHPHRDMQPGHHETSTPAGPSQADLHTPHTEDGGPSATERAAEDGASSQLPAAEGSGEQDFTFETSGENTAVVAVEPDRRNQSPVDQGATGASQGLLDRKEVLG
The experiment is described as follows: SPR (Carterra LSA): antibody captured by anti-human IgG, CD138 as analyte, pH 7.4, 1:1 fit. The text has this: This method as described, immobilizes the target (recombinant CD138) through biotinylation-streptavidin capture. Such a method may, in principle, lead to biases in binding due to either chemical modification of the capture ligand and/or avidity effects due to immobilization of this ligand on the biosensor. Moreover, this method depends on diffusion-based principles of dissociation leading to non-equilibrium binding states. Surface plasmon resonance is an orthogonal, commonly used method for determining binding kinetics and deriving affinity values based on these parameters. In this method, antibodies were directly coupled to the sensor chip and probed with several concentrations of recombinant CD138 (the antigen) varying from 100 nM to 41 nM. This evaluation was completed under two different pH conditions, i.e., pH 6.0 and pH […].
Antibody-CD138 binding was evaluated on a Carterra LSA high throughput SPR instrument. Binding experiments were carried out using binding buffer comprising 100 mM sodium phosphate, 150 mM NaCl and 0.05% Tween-20 buffer. Buffers were adjusted to target pH of 7.4 and 6.0, by use of sodium hydroxide or HCL, respectively. All steps were also carried out independently at these respective buffer pHs. Antibodies were captured on the SPR (CMDP) chip using an anti-human IgG covalently coupled to the CMDP chip based on standard protocols, as described by the instrument manufacturer, and to create a uniform lawn on the chip surface at a target 25 nM anti-CD138 antibody concentration. Binding to CD138 was achieved by uniformly passing binding analyte with increasing concentrations of CD138 (41 nM-100 nM) for 15 minutes and allowing dissociation for 20 minutes. Analyte was flowed over the chip at a rate of 2 milliliters/minute. Raw binding data were processed using kinetics data analysis software also provided by the manufacturer (Carterra) following as 2X background subtraction that used the first six injections of buffer blanks and the internal machine reference controls. Kinetic data was analysed using a global fit and assuming a 1:1 binding interaction. Further analysis of individual binding curves (sensorgrams) with best fits were used to refine the calculation of kinetic parameters.

The target of the next experiment is T2, Peptide 2D (human).
T2 construct: Chemically synthesized human CD138 peptide, 15 residues
T2 peptide: {Biotin-dPEG8″}-GEAVVLPEVEPGLTA-OH
Description: BLI (Octet): biotinylated peptide (50 nM) on streptavidin sensors, mAb 4320 in solution, PBS pH 7.4; qualitative score. A general note: Biolayer interferometry detects binding as a change in optical thickness at a sensor tip.

The target in a further experiment is T3, Peptide 138-2-1 (human).
T3 construct: Chemically synthesized human CD138 peptide, 8 residues
T3 peptide: {Biotin-dPEG8}-VLPEVEPG-OH
Description: BLI (Octet): biotinylated peptide (50 nM) loaded on streptavidin SA biosensors, mAb 4320 in solution, PBS pH 7.4 with 0.02% Tween-20.

A further experiment addresses T4, Peptide 138-2-2 (human).
T4 construct: Chemically synthesized human CD138 peptide, 7 residues
T4 peptide: {Biotin-dPEG8}-LPEVEPG-OH
Described as above.

In the next experiment the target is T5, Peptide 138-2-3 (human).
T5 construct: Chemically synthesized human CD138 peptide, 8 residues
T5 peptide: {Biotin-dPEG8}-PEVEPGLT-OH
The description is as above.

The next experiment addresses T6, Peptide 6B (human, N-terminal biotin through a long chain (dPEG8) linker (Biot-LC-); C-terminal -OH).
T6 construct: Chemically synthesized human CD138 peptide, 33 residues
T6 peptide: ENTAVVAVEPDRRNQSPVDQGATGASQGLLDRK
Description: BLI (Octet): biotinylated peptide (50 nM) loaded on streptavidin SA biosensors, mAb 4320 in solution, 300 s association then dissociation, PBS pH 7.4 with 0.02% Tween-20.

In another experiment the target is T7, Peptide 6F (human).
T7 construct: Chemically synthesized human CD138 peptide, 15 residues
T7 peptide: {Biotin-dPEG8″}-ENTAVVAVEPDRRNQ-OH
The experiment is described as above.

In the next experiment the target is T8, Peptide 138-6-1 (human).
T8 construct: Chemically synthesized human CD138 peptide, 8 residues
T8 peptide: {Biotin-dPEG8}-VVAVEPDR-OH
The description is as above.

A further experiment has as its target T9, Peptide 2A (human, N-terminal biotin through a long chain (dPEG8) linker (Biot-LC-); C-terminal -OH).
T9 construct: Chemically synthesized human CD138 peptide, 34 residues; also called Pep2a
T9 peptide: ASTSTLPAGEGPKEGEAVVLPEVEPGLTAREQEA
Described as above.

The next experiment addresses T10, Peptide 2C (human, N-terminal biotin through a long chain (dPEG8) linker (Biot-LC-); C-terminal -OH).
T10 construct: Chemically synthesized human CD138 peptide, 20 residues
T10 peptide: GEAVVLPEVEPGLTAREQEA
Described as above.

The next experiment has as its target T11, Peptide 6 (human, N-terminal biotin through a long chain (dPEG8) linker (Biot-LC-); C-terminal -OH).
T11 construct: Chemically synthesized human CD138 peptide, 41 residues; also called Pep6
T11 peptide: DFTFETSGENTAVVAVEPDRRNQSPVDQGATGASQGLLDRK
The description is as above.

B1: mAb 4320 (parental humanized anti-CD138 antibody) (antibody, human IgG1, kappa, V domains shown)
VH: QVQLVQSGAEVKKPGASVKVSCKASGYSFSSYYMHWVRQAPGQGLEWMGTIHPSDSTTNYNQKFQGRVTMTVDTSTRTAYMELSSLRSEDTAVYYCANFVYWGQGTTVTVSS
VL: DIVMTQTPLSLSVTPGQPASISCKSSKSLLYKDGKTYLNWFLQKPGQSPQLLIYVVSTRASGVPDRFSGSGSGTDFTLKISRVEAEDVGVYYCQQLVEYPYTFGQGTKLEIKR
notes: Full-length IgG; heavy constant region human gamma 1 (m3 allotype), light chain kappa constant*01
For the molecule B1, the Kd in experiment [1] amounted to 0.2 nM. Also, the koff in [1] is 8.5e-05 s⁻¹. In experiment [1], the kon was determined as 370000 M⁻¹ s⁻¹. For the same molecule, the binding result is listed as “binds” in the experiment with Peptide 2D; “no binding” with Peptide 138-2-1; “no binding” with Peptide 138-2-2; “no binding” in the experiment with Peptide 138-2-3; “binds” with Peptide 6B; “binds” with Peptide 6F. In addition, the binding result with Peptide 138-6-1, in the experiment with Peptide 2A, in the experiment with Peptide 2C and in the experiment with Peptide 6 was “binds” each time.

What is called Kd is the concentration at which binding is half-saturated. What is called koff is a measure of how fast the partners let go of each other. One may read the kon as a measure of how fast the partners come together.
